Measurements from patent US20210238302A1, “HIGH AFFINITY MONOCLONAL ANTIBODIES (MABS) AGAINST CELL SURFACE EXPRESSED HUMAN CARBONIC ANHYDRASE IX (HCA-IX), AND USES THEREOF” (NATIONAL RESEARCH COUNCIL OF CANADA, priority 2018, published 2021).
Where “and” joins values, the source holds several entries; their conditions need not be identical. Identical values can stand only once. Entries after “also recorded” stand apart in the source; their conditions may differ. Like-named read-outs stand apart in the source and are kept apart here.

Key:
[1] = biological target: T1, rhCA-IX ECD (Homo sapiens, UniProt Q16790); experiment: Reverse Phase Protein Array (RPPA); assay type: binding
[2] = biological target: rhCA-IX ECD Dimer (Homo sapiens, UniProt Q16790)
Procedure: (§1) SPR experiments were carried out by capturing the CA-IX mAbs from the CM with an anti-mouse Fc antibody immobilized on the chip surface, after which rhCA-IX EDC mixture, or rhCA-IX EDC monomer or dimer were flowed over the mAb surface.

[3] = biological target: rhCA-IX ECD Monomer (Homo sapiens, UniProt Q16790)
Procedure: as §1

[4] = biological target: T1, rhCA-IX ECD; experiment: Western blot of non-purified mAbs on purified CA-IX ECD antigen; assay type: binding; details: undiluted CM; non-reducing and reducing conditions
Description: Anti-hCA-IX mAb 10F2 is shown as a positive control.

[5] = biological target: T1, rhCA-IX ECD; assay type: biochemical
Description: To determine whether these mAbs can inhibit the enzyme activity of the rhCA-IX ECD protein, we used an activity assay in which 4-Nitrophenyl acetate (4-NPA) is used as a substrate. […]

[6] = biological target: T2, low hCA-IX expressing SK-RC-59 cells (Homo sapiens, UniProt Q16790); experiment: Flow cytometry binding, SK-RC-59 cells; assay type: cell-based; details: SK-RC-59 (low hCA-IX)
T2 construct: the non-transfected human renal tumor SK-RC-59 and SK-RC-52 cell lines; endogenous in cells; host or cells: SK-RC-52 (high hCA-IX), SK-RC-59 (low hCA-IX)
Procedure: These cell lines have been used in the literature for the screening of scFv Abs for binding to hCA-IX (Xu et al., 2011). Western blot analysis of these cell lines under reducing and non-reducing conditions (FIG. 8) confirmed the expression of hCA-IX in the SK-RC-52 cell line (indicated with a star), whereas no hCA-IX could be detected in the SK-RC-59 cell line. Equal protein quantities were loaded (BCA protein assay) which was confirmed by an actin blot.
Flow cytometry: mAbs were evaluated in a flow cytometry experiment using the SK-RC-59 and SK-RC-52 cell lines. As controls a commercially available mAb (R&D, Clone #303123, Cat #MAB2188) and the M75 mAb (generously supplied by Dr E Oosterwijk, Radboud University Nijmegen, The Netherlands) were used. Experiments were plotted per cell line (FIG. 9) using a double Y-axis (left Y-axis, % live cells, closed squares; right Y-axis, mean fluorescence intensity of the live population, closed circles; X-axis, experimental groups).

[7] = biological target: rhCA-IV (Homo sapiens, UniProt P22748); experiment: Cross-reactivity determination by SPR; assay type: binding
Description: (§2) hCA-IX is one of several hCAs that have been identified to date (see FIG. 1). […] In contrast to hCA-IX the expression pattern of hCA-XII is much more widespread and not as cancer specific as hCA-IX.

[8] = biological target: rhCA-XII (Homo sapiens, UniProt O43570); experiment: Cross-reactivity determination by SPR; assay type: binding
Description: as §2

[9] = biological target: rhCA-XIV (Homo sapiens, UniProt Q9ULX7); experiment: Cross-reactivity determination by SPR; assay type: binding
Description: as §2

[10] = biological target: rmCA-IX (Mus musculus, UniProt Q8VHB5); experiment: Cross-reactivity determination by SPR; assay type: binding, murine
Description: as §2

[11] = Differential Scanning Calorimetry (DSC) thermostability; assay type: physicochemical; details: DSC 25° C. to 100° C., scan rate 90° C./hour; versus Cetuximab
Procedure: (scan rate 90° C./hour). The therapeutic anti-EGFR Ab Cetuximab, which has been proven to be a very stable under these conditions, was used as control.

[12] = system: SK-RC-52 cells; experiment: Internalization of pHAb dye labeled mAbs; assay type: cell-based, human; details: antibody-pHAb dye conjugates, 37° C., 24 h
Description: In addition, we also evaluated the internalization potential of these mAbs with the thought of using these enzyme-inhibiting mAbs to bring a toxic pay-load into cancer cells. For this, both mAbs, in addition to a negative control IgG, were labeled with a pH sensitive reactive dye (pHAb; Promega). Upon receptor-mediated internalization, these antibody-pHAb Dye conjugates traffick to the endosome and lysosomal vesicles where pH is acidic, causing the pHAb dye to fluoresce. CA-IX expressing SK-RC-52 expressing cells were incubated with these antibody-pHAb dye conjugates (10 μg/mL) and incubated at 37° C. (5% CO2, humidified environment) for 24 h (FIG. 18A) or coated with various concentrations of the conjugates for 30 min at 4° C., washed, and then transferred to 37° C. (5% CO2, humidified environment) for 24 h (FIG. 18B).

[13] = Cell viability; assay type: cell-based
[14] = biological target: rhCA-IX ECD monomer or dimer (Homo sapiens, UniProt Q16790)
[15] = hybridoma-derived mAb, rhCA-IX ECD dimer
[16] = hybridoma-derived mAb, 1 μM rhCA-IX ECD dimer, mAb:rhCA-IX ECD 4:1
[17] = recombinant mAbs, rhCA-IX ECD monomer

rhCA-XIV, sequence (Q9ULX7 16-337): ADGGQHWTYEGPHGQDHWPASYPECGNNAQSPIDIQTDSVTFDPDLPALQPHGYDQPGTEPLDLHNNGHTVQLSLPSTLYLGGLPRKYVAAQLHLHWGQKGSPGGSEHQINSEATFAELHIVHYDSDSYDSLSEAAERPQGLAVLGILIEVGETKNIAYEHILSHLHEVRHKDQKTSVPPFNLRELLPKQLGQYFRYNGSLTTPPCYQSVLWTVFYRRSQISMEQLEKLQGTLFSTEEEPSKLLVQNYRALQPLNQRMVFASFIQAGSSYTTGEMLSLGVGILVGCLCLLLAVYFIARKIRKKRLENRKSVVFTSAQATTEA
rhCA-XII, sequence (O43570 25-354): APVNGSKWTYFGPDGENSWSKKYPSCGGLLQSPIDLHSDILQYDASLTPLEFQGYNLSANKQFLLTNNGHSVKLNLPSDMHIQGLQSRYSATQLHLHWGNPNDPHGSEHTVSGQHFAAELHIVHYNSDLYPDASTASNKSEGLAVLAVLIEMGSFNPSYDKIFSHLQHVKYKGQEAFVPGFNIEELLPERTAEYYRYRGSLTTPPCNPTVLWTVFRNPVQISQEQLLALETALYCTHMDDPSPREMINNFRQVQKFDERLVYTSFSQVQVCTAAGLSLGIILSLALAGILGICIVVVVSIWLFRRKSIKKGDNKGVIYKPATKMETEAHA
rhCA-IV, sequence (P22748 19-284): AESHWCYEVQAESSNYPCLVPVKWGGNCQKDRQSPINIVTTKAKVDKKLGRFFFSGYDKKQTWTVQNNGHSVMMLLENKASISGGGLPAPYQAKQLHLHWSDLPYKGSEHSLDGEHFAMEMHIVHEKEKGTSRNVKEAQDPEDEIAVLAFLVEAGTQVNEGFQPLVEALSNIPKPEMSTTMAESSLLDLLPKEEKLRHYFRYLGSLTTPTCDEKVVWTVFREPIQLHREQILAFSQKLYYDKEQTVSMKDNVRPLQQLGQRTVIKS
rmCA-IX, sequence (Q8VHB5 32-437): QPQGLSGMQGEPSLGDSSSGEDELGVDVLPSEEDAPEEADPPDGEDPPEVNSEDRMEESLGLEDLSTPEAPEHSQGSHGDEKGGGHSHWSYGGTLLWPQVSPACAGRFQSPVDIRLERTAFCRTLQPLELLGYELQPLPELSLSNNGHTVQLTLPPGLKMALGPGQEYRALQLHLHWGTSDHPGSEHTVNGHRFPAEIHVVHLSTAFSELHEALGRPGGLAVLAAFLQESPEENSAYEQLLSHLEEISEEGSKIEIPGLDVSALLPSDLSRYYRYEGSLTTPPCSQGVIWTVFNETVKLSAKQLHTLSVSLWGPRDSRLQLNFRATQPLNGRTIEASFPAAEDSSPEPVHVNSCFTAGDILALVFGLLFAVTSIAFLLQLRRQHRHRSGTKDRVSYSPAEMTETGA

B1: 9B6: mouse IgG2b monoclonal antibody inhibiting hCA-IX catalytic activity; SEQ ID NO.14 and 18; hybridoma-derived and recombinant (SEQ ID NO. 24 and 25) (antibody, V domains shown)
VL: DIVLTQSPSSLAVSLGQRATISCKASQSVDYDGNSYMNWFQQKPGQPPKLLIYEASSLESGIPARISGSGSGTDFTLNIHPVEEEDAATYYCQQSYEGPYTFGGGTKLEIK
VH: QVQLQQPGAELVKPGASVKLSCKASGYIFTTKWINWVKQRPGQGLEWIGNIYPGSSNTYYNEKFKNKATLTVDKSSNTAHLQLSSLTSEDSAVYYCARGIANWGQGTPVTVSA
[1]
  Antigen in protein mixture Denatured (D): 1.74
  Antigen in protein mixture Native (C): 5.79
  mAb binding specificity: rhCA-IX
  preference for native or denatured rhCA-IX ECD: slightly increased preference for the denatured protein
[1]; native/denatured purified antigen
  Ratio (A)/(B) (Possibly epitope related): 0.68
[1]; non-purified hybridoma mAb
  Purified Antigen Denatured (B): 21.55
  Purified Antigen Native (A): 14.75
[2]; Hybridoma-derived, rhCA-IX ECD dimer
  off rate: extremely slow
[2]; [15]
  ka: 1.33E+05
  kd: 4.17E−18
[2]; recombinant and hybridoma-derived mAb, rhCA-IX ECD dimer (FIG. 12)
  binding kinetics: poor
[3]; Hybridoma-derived
  off rate: slow
[3]; Recombinantly expressed, mIgG2b
  off rate: slow
[4]
  Western blot binding to rhCA-IX ECD: do not detect rhCA-IX ECD; also recorded: failed to bind
[5]
  % rhCA-IX ECD Inhibition: 42.59%
[5]; [16]
  % rhCA-IX ECD Activity: 59.25%
  % rhCA-IX ECD Inhibition: 40% and 40.75%
[5]; hybridoma-derived mAb, mAb:rhCA-IX ECD 4:1
  Comments: Inhibition
[5]; recombinant mAbs and Fabs, 0.5 μM each, rhCA-IX ECD 0.5 μM dimer, 4-NPA
  rhCA-IX ECD enzyme activity inhibition: 40% and 28%
[5]; replicate 1 of % rhCA-IX ECD activity, hybridoma-derived mAb, mAb:rhCA-IX ECD 4:1
  Data1: 59.25
[5]; replicate 2 of % rhCA-IX ECD activity, hybridoma-derived mAb, mAb:rhCA-IX ECD 4:1
  Data2: 55.57
[6]
  binding to cell surface hCA-IX by flow cytometry: virtually no binding was detected
[7]
  SPR binding (cross-reactivity): no interaction was detected
[8]
  SPR binding (cross-reactivity): no interaction was detected
[9]
  SPR binding (cross-reactivity): no interaction was detected
[10]
  SPR binding (cross-reactivity): no interaction was detected
[11]
  thermostability: slightly less stable than Cetuximab
[12]
  internalization: internalize in a CA-IX specific manner
[13]
  reduction of cell viability: active in reducing cell viability
[14]; hybridoma-derived mAbs, rhCA-IX ECD monomer or dimer
  competition between 4A2 and 9B6 for binding: do not compete
[14]; [17]
  competition between 4A2 and 9B6 for binding: do not compete for binding to hCA-IX
  competition with cG250 for binding to hCA-IX: neither the 9B6 nor the 4A2 mAb competes with cG250
